What was measured:
TβRII-GFP [1] = molecular target: TβRII-GFP (UniProt P37173); assay: AFM single-molecule force spectroscopy; TGF-β1-modified AFM tips on live HeLa cells expressing TβRII-GFP; contact mode, room temperature, loading rate 1.0 x 10^4 pN/s; cells treated with 50 μM metformin
TβRII-GFP [2] = molecular target: TβRII-GFP (UniProt P37173); assay: AFM single-molecule force spectroscopy; TGF-β1-modified AFM tips on live HeLa cells expressing TβRII-GFP; contact mode, room temperature, loading rate 1.0 x 10^4 pN/s; untreated cells

Sequence of TβRII-GFP (P37173 23-567): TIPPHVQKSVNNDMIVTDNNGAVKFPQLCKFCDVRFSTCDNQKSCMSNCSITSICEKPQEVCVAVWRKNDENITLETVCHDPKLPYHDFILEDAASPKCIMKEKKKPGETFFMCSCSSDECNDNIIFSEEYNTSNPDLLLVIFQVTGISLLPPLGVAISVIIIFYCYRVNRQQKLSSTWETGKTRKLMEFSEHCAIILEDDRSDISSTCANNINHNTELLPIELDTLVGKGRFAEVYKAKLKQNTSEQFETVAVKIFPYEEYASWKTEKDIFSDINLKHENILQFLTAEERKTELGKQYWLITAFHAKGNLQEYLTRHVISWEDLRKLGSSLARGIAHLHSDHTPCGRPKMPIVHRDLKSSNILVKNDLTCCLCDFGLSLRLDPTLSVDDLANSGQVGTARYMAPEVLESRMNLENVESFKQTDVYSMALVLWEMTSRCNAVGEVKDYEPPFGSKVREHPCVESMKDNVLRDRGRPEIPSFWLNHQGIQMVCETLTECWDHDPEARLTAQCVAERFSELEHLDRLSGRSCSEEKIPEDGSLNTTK

binding force (averaged histogram peak value), with 50 μM metformin (TβRII-GFP [1]): 49.3 pN
binding probability, with 50 μM metformin (TβRII-GFP [1]): 9.9%
binding force (averaged histogram peak value) (TβRII-GFP [2]): 49.5 pN
binding probability (TβRII-GFP [2]): 21.7%
Substance: Recombinant human TGF-β1 (ligand)

From paper PMC4923858
